Series [1] addresses T1, CcdA2 (antitoxin dimer);CcdB2 (toxin dimer) (Escherichia coli (F …, UniProt P62552;P62554 1-72;1-101, |)). Nature of the series: EMSA. In general terms: Mobility shift assays separate free from complexed probe on a gel.
The target of series [2] is T1, CcdA2 (antitoxin dimer);CcdB2 (toxin …). As to the kind of experiment: ITC.
Series [3] addresses T2, toxin CcdB2 (F plasmid CcdB dimer) (E. coli F plasmid, UniProt P62554 1-101). Nature of the series: ITC.
The target in series [4] is T2, toxin CcdB2 (F plasmid CcdB dimer). Nature of the series: ITC. This is another data set of the same source. In general terms: In ITC the heat of successive injections is recorded.
In series [5] the target is T1, CcdA2 (antitoxin dimer);CcdB2 (toxin …). As to the kind of experiment: EMSA. The source holds these as a separate data set.

B1: Random (dsDNA)
DNA 1: TGCCCAAGTGATGCTAAACAAGACTTAGCTGGTTCCTGTGTT
DNA 2: AACACAGGAACCAGCTAAGTCTTGTTTAGCATCACTTGGGCA
With B1, the binding result in series [1] was “no binding”.

B2: CcdITC (3 binding sites) (dsDNA)
DNA 1: GCGGTATAAGAATATATACTGATATGTATACCC
DNA 2: GGGTATACATATCAGTATATATTCTTATACCGC
For B2, in series [2], the binding result was “binds”.

B3: CcdAC, truncated CcdA comprising the entire C-terminal domain (CcdA^37-72) (peptide, UniProt P62552 37-72, looked up)
chain: RRLRAERWKAENQEGMAEVARFIEMNGSFADENRDW
Take B3: the binding result in series [3] is given as “binds”.

B4: antitoxin CcdA2 (F plasmid CcdA dimer, full length) (natural protein, E. coli F plasmid, UniProt P62552 1-72, looked up)
chain: MKQRITVTVDSDSYQLLKAYDVNISGLVSTTMQNEARRLRAERWKAENQEGMAEVARFIEMNGSFADENRDW
On to B4, for which, in series [4], the “difference between the high and low affinity binding constants” value is roughly 1e+06 fold.

B5: Ccd3 (3 binding sites) (dsDNA)
DNA 1: ACGTGCGGTATAAGAATATATACTGATATGTATACCCGAATA
DNA 2: TATTCGGGTATACATATCAGTATATATTCTTATACCGCACGT
Turning to B5, the binding result in series [5] is given as “binds”.
